# Assay results: patent publication US20240181022A1, “AMURINS LYSINS, AND LYSIN-ANTIMICROBIAL PEPTIDE (AMP) CONSTRUCTS ACTIVE AGAINST GRAM-NEGATIVE BACTERIA” (priority 2021, published 2024)
# Where “and” joins values, the source holds several entries; their conditions need not be identical. Equal values may be shown once. Read-outs that look alike come from different tables or passages of the source.
# Legend:
# A. ruhlandii = assay: MIC by broth microdilution against A. ruhlandii; type: cell-based, Achromobacter ruhlandii; conditions: A. ruhlandii isolates
# Experimental: (§1) MIC values were determined using a modification of the standard broth microdilution reference method defined by the Clinical and Laboratory Standards Institute (CLSI), CLSL. 2015. Methods for Dilution Antimicrobial Susceptibility Tests for Bacteria That Grow Aerobically; Approved Standard-10th Edition. Clinical and Laboratory Standards Institute, Wayne, PA. The modification was based on the replacement of Mueller Hinton Broth with either CAA media (with and without NaCl) or CAA supplemented with 2.5% human serum. MIC is the minimum concentration of peptide sufficient to suppress at least 80% of the bacterial growth compared to control.
# (§2) Based on these nine most prevalent strains, direct lytic agents, including GN370, AM1, AM2, and AM3, were evaluated against various isolates from each of the 9 strains. MICs and MBECs (Example 3) were determined, and a sputum inhibition test was conducted, as described below in Example 5.
# (§3) The MICs for were determined as described below using the broth microdilution method for meropenem, GN370, AM1, AM2, and AM3. The results are shown below in Tables 8-12.
# P. aeruginosa [1] = assay: Checkerboard synergy assay (FICI) with antibiotics against P. aeruginosa; type: cell-based, Pseudomonas aeruginosa; parameters: key to average FICI score with amikacin: FICI: ≤0.5 synergy, >0.5–≤1 additive, >1 indifferent; conditions: for MIC (dual agent): GN370 + meropenem
# How it was run: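 Checkerboard of 2-fold antibiotic dilutions crossed with GN370 (lysin peptide), bacteria at 1×10^5 CFU/ml in CAA, with or without human serum or pulmonary surfactant. ΣFICmin taken as FICI: ≤0.5 synergy, >0.5–≤1 additive, >1 indifferent.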
# P. apista = assay: MIC by broth microdilution against P. apista; type: cell-based, Pandoraea apista
# Experimental: as §1, §2, §3
# S. maltophilia = conditions: for MIC: S. maltophilia test organism of the sputum time-kill assay
# P. aeruginosa [2] = tested on: P. aeruginosa
# [3] = P. aeruginosa (ATCC 27853, CFS 1766)
# [4] = P. aeruginosa (ATCC 27853, CFS 1766), GN370 with meropenem
# [5] = P. aeruginosa (CFS 2045), GN370 with meropenem
# [6] = P. aeruginosa (CFS 2061), GN370 with meropenem
# [7] = P. aeruginosa strain AR-769, GN370 with Amikacin
# [8] = P. aeruginosa strain AR-769, GN370 with Cefepime
# [9] = P. aeruginosa strain AR-769, GN370 with Ceftazidime
# [10] = P. aeruginosa strain AR-769, GN370 with Ciprofloxacin
# [11] = P. aeruginosa strain AR-769, GN370 with Colistin
# [12] = P. aeruginosa strain AR-769, GN370 with Meropenem
# [13] = P. aeruginosa strain AR-769, GN370 with Tobramycin
# [14] = P. aeruginosa strain AR-769, in combination with Amikacin
# [15] = P. aeruginosa strain AR-769, in combination with Cefepime
# [16] = P. aeruginosa strain AR-769, in combination with Ceftazidime
# [17] = P. aeruginosa strain AR-769, in combination with Ciprofloxacin
# [18] = P. aeruginosa strain AR-769, in combination with Meropenem
# [19] = P. aeruginosa strain AR-769, in combination with Tobramycin
# [20] = Pandoraea apista, N 11 (Table 26)
# [21] = MDR S. maltophilia isolates (n = 8)
# [22] = Stenotrophomonas maltophilia, N 12 (Table 26)
# [23] = carbapenem-resistant S. maltophilia isolates (n = 21)
# [24] = P. aeruginosa (28), 2-hour treatment
molecule,measurement,setting,value
"C[C@@H](O)[C@H]1C(=O)N2C(C(=O)O)=C(S[C@@H]3CN[C@H](C(=O)N(C)C)C3)[C@H](C)[C@H]12 [meropenem, reference compound]",MIC50,A. ruhlandii,16 µg/mL
same,MIC90,A. ruhlandii,> 32 µg/mL
same,MIC (alone),P. aeruginosa [1]; [3],8 µg/mL
same,MIC (dual agent),P. aeruginosa [1]; [3],0.25 µg/mL
same,MIC (alone),P. aeruginosa [1]; P. aeruginosa (CFS 2045),32 µg/mL
same,MIC (dual agent),P. aeruginosa [1]; P. aeruginosa (CFS 2045),4 µg/mL
same,MIC (alone),P. aeruginosa [1]; P. aeruginosa (CFS 2061),64 µg/mL
same,MIC (dual agent),P. aeruginosa [1]; P. aeruginosa (CFS 2061),4 µg/mL
same,FICI of the antibiotic with GN370,"P. aeruginosa [1]; P. aeruginosa ATCC 27853, checkerboard",0.375
same,Antibiotic MIC (single agent),P. aeruginosa [1]; P. aeruginosa strain AR-769,64 µg/mL
same,Antibiotic FIC,"P. aeruginosa [1]; P. aeruginosa strain AR-769, in combination with GN370",0.125
same,Antibiotic MIC (combo),"P. aeruginosa [1]; P. aeruginosa strain AR-769, in combination with GN370, in µg/mL",8
same,MIC50,P. apista; P. apista isolates,> 32 µg/mL
same,MIC90,P. apista; P. apista isolates,> 32 µg/mL
same,MIC Range,P. apista; P. apista isolates,> 32 µg/mL
same,MIC50,S. maltophilia; S. maltophilia isolates,> 32 µg/mL
same,MIC90,S. maltophilia; S. maltophilia isolates,> 32 µg/mL
same,MIC,S. maltophilia,Meropenem (MIC = 32)
"GN370: lysin-AMP construct, SEQ ID NO: 149: MIDR, FIRL and NPTH moieties N-terminal to GN202 lysin (protein, GN370 lysin) MIDRFIRLNPTHGPRRPRRPGRRAPVRTSQRGIDLIKSFEGLRLSAYQDSVGVWTIGYGTTRGVTRYMTITVEQAERMLSNDIQRFEPELDRLAKVPLNQNQWDALMSFVYNLGAANLASSTLLDLLNKGDYQGAADQFPHWVNAGGKRLDGLVKRRAAERALFLEPLS",MIC50,A. ruhlandii,2 µg/mL
same,MIC90,A. ruhlandii,> 32 µg/mL
same,GN370 FIC,P. aeruginosa [1],0.125
same,synergy with meropenem,P. aeruginosa [1]; 3 strains of P. aeruginosa,synergizes with meropenem against P. aeruginosa
same,MIC (alone),P. aeruginosa [1]; [3],1 µg/mL
same,MIC (dual agent),P. aeruginosa [1]; [3],0.06 µg/mL
same,FICmin,P. aeruginosa [1]; [4],0.091
same,FICmin interpretation,P. aeruginosa [1]; [4],(Synergy)
same,MIC (alone),P. aeruginosa [1]; P. aeruginosa (CFS 2045),2 µg/mL
same,MIC (dual agent),P. aeruginosa [1]; P. aeruginosa (CFS 2045),0.06 µg/mL
same,FICmin,P. aeruginosa [1]; [5],0.155
same,FICmin interpretation,P. aeruginosa [1]; [5],(Synergy)
same,MIC (alone),P. aeruginosa [1]; P. aeruginosa (CFS 2061),4 µg/mL
same,MIC (dual agent),P. aeruginosa [1]; P. aeruginosa (CFS 2061),0.25 µg/mL
same,FICmin,P. aeruginosa [1]; [6],0.125
same,FICmin interpretation,P. aeruginosa [1]; [6],(Synergy)
same,GN370 MIC (single agent),P. aeruginosa [1]; P. aeruginosa strain AR-769,2 µg/mL
same,FICave,P. aeruginosa [1]; [7],0.323
same,FICmin,P. aeruginosa [1]; [7],0.281
same,FICave,P. aeruginosa [1]; [8],0.542 and 0.419
same,FICmin,P. aeruginosa [1]; [8],0.5 and 0.375
same,FICave,P. aeruginosa [1]; [9],1.073
same,FICmin,P. aeruginosa [1]; [9],1.031
same,FICave,P. aeruginosa [1]; [10],0.543 and 0.417
same,FICmin,P. aeruginosa [1]; [10],0.5 and 0.375
same,FICave,P. aeruginosa [1]; [11],0.292
same,FICmin,P. aeruginosa [1]; [11],0.25
same,FICave,P. aeruginosa [1]; [12],0.422 and 0.419
same,FICmin,P. aeruginosa [1]; [12],0.375
same,FICave,P. aeruginosa [1]; [13],0.418
same,FICmin,P. aeruginosa [1]; [13],0.375
same,average FICI score with amikacin,"P. aeruginosa [1]; P. aeruginosa strain AR-769, checkerboard",0.323
same,GN370 FIC,P. aeruginosa [1]; [14],0.031
same,GN370 MIC (combo),P. aeruginosa [1]; [14],0.063 µg/mL
same,GN370 FIC,P. aeruginosa [1]; [15],0.25
same,GN370 MIC (combo),P. aeruginosa [1]; [15],0.5 µg/mL
same,GN370 FIC,P. aeruginosa [1]; [16],0.031
same,GN370 MIC (combo),P. aeruginosa [1]; [16],0.063 µg/mL
same,GN370 FIC,P. aeruginosa [1]; [17],0.25
same,GN370 MIC (combo),P. aeruginosa [1]; [17],0.5 µg/mL
same,GN370 MIC (combo),"P. aeruginosa [1]; P. aeruginosa strain AR-769, in combination with Colistin",0.25 µg/mL
same,GN370 FIC,P. aeruginosa [1]; [18],0.25
same,GN370 MIC (combo),P. aeruginosa [1]; [18],0.5 µg/mL
same,GN370 FIC,P. aeruginosa [1]; [19],0.25
same,GN370 MIC (combo),P. aeruginosa [1]; [19],0.5 µg/mL
same,MIC50,P. apista; P. apista isolates,> 32 µg/mL
same,MIC90,P. apista; P. apista isolates,> 32 µg/mL
same,MIC50,P. apista; [20],>64 µg/mL
same,MIC90,P. apista; [20],>64 µg/mL
same,MIC Range,P. apista; [20],>64 µg/mL
same,MIC50,S. maltophilia; [21],0.25 µg/mL
same,MIC90,S. maltophilia; [21],0.5 µg/mL
same,MIC Range,"S. maltophilia; MDR S. maltophilia isolates (n = 8), in µg/mL",0.0625-0.5
same,MIC50,S. maltophilia; S. maltophilia isolates,0.5 µg/mL
same,MIC90,S. maltophilia; S. maltophilia isolates,2 µg/mL
same,MIC Range,"S. maltophilia; S. maltophilia isolates, in µg/mL",0.03-2
same,MIC,S. maltophilia,GN370 (MIC = 0.5)
same,MIC50,S. maltophilia; [22],2 µg/mL
same,MIC90,S. maltophilia; [22],8 µg/mL
same,MIC Range,S. maltophilia; [22],0.25 to 8 µg/mL
same,GN370 MIC,S. maltophilia; XDR S. maltophilia isolate AU29729,1 µg/mL
same,GN370 MIC,S. maltophilia; XDR S. maltophilia isolate AU29873,0.5 µg/mL
same,GN370 MIC,S. maltophilia; XDR S. maltophilia isolate AU30243,1 µg/mL
same,GN370 MIC,S. maltophilia; XDR S. maltophilia isolate AU30793,1 µg/mL
same,GN370 MIC,S. maltophilia; XDR S. maltophilia isolate AU32079,0.03125 µg/mL
same,GN370 MIC,S. maltophilia; XDR S. maltophilia isolate AU33199,0.0625 µg/mL
same,GN370 MIC,S. maltophilia; XDR S. maltophilia isolate AU33860,2 µg/mL
same,GN370 MIC,S. maltophilia; XDR S. maltophilia isolate AU33921,2 µg/mL
same,GN370 MIC,S. maltophilia; XDR S. maltophilia isolate AU34723,2 µg/mL
same,GN370 MIC,S. maltophilia; XDR S. maltophilia isolate AU35419,2 µg/mL
same,GN370 MIC,S. maltophilia; XDR S. maltophilia isolate AU35661,0.0625 µg/mL
same,GN370 MIC,S. maltophilia; XDR S. maltophilia isolate AU36631,0.5 µg/mL
same,GN370 MIC,S. maltophilia; XDR S. maltophilia isolate AU36888,0.25 µg/mL
same,GN370 MIC,S. maltophilia; XDR S. maltophilia isolate AU37239,1 µg/mL
same,GN370 MIC,S. maltophilia; XDR S. maltophilia isolate AU37260,0.5 µg/mL
same,GN370 MIC,S. maltophilia; XDR S. maltophilia isolate AU37689,0.25 µg/mL
same,GN370 MIC,S. maltophilia; XDR S. maltophilia isolate AU37737,2 µg/mL
same,MIC50,S. maltophilia; XDR isolates of S. maltophilia,1 µg/mL
same,MIC Range,"S. maltophilia; XDR isolates of S. maltophilia, in µg/mL",0.03125-2
same,activity (MIC) against S. maltophilia isolates,"S. maltophilia; all tested isolates, Tables 8-12",highly active
same,GN370 MIC50,S. maltophilia; [23],0.5 µg/mL
same,GN370 MIC90,S. maltophilia; [23],2 µg/mL
same,GN370 MIC Range,"S. maltophilia; carbapenem-resistant S. maltophilia isolates (n = 21), in µg/mL",0.03-2
same,antibiofilm activity (MBEC) against P. aeruginosa,P. aeruginosa [2]; 2-hour treatments,highly active
same,MBEC50,P. aeruginosa [2]; MDR and XDR P. aeruginosa (9),2 µg/mL
same,MBEC90,P. aeruginosa [2]; MDR and XDR P. aeruginosa (9),4 µg/mL
same,MBEC Range,P. aeruginosa [2]; MDR and XDR P. aeruginosa (9),1 to 4 µg/mL
same,Number of isolates at MBEC 1 μg/mL,P. aeruginosa [2]; MDR and XDR P. aeruginosa (9),4
same,Number of isolates at MBEC 2 μg/mL,P. aeruginosa [2]; MDR and XDR P. aeruginosa (9),4
same,Number of isolates at MBEC 4 μg/mL,P. aeruginosa [2]; MDR and XDR P. aeruginosa (9),1
same,MBEC50,P. aeruginosa [2]; [24],1 µg/mL
same,MBEC90,P. aeruginosa [2]; [24],2 µg/mL
same,MBEC Range,P. aeruginosa [2]; [24],0.064-4 ^ μg/mL
